The record followed here is patent publication US20230287060, “PROTEINS AND THEIR USE FOR NUCLEOTIDE BINDING” (The University of Western Australia, published 2023).

This data set deals with T1, cPPR-Telo1 (synthetic construct).
T1 chain: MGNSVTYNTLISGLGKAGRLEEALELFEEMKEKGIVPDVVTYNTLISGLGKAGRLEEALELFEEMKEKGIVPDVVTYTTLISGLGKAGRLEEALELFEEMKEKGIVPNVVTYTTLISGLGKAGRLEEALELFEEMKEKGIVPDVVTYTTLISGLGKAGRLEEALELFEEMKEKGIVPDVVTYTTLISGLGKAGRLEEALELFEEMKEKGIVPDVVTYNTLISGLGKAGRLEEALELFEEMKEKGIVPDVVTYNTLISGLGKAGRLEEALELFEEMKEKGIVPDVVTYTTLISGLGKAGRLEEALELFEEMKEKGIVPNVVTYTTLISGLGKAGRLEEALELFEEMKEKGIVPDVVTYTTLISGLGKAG
The experiment in a line: structure; co-crystal structure 2.0 A, PDB 5ORQ; protein/DNA 1:2; 100 mM sodium acetate pH 4.6, 20 mM CaCl2, 22% MPD. The settings on record: tags: GST and His tags (pETM30, E. coli). The method, then:
Crystals of cPPR-Telo1 were grown at 23° C. by the sitting drop vapour diffusion method by mixing 1 μl protein (5 mg/ml) with an equal volume of reservoir solution (100 mM sodium acetate pH 4.6, 20 mM calcium chloride, and 40% MPD). In addition, cPPR-Telo1 was incubated with target ssDNA oligonucleotide (TTAGGGTTAG) at a protein/DNA molar ratio of 1:2 for 30 min at 4° C. and crystallized in 100 mM sodium acetate pH 4.6, 20 mM calcium chloride, and 22% MPD. For both cPPR-Telo1 and cPPR-Telo1/ssDNA a single-wavelength anomalous dispersion dataset was collected at the K-edge of selenium at beam line ID30A-3 (ESRF, Grenoble, France). […] Acta Crystallogr D Biol Crystallogr 66, 213-21 (2010) was used as a starting model for manual building in COOT (Emsley, P. & Cowtan, K. Coot: model-building tools for molecular graphics. Acta Crystallogr D Biol Crystallogr 60, 2126-32 (2004) interspersed with refinement in Buster (version 2.10.3) (Smart, O. S. et al. Exploiting structure similarity in refinement: automated NCS and target-structure restraints in BUSTER. Acta Crystallogr D Biol Crystallogr 68, 368-80 (2012), which rendered a final model (Table 1) that had no Ramachandran outliers as assessed by MOLPROBITY (Lovell, S. C. et al. Structure validation by Calpha geometry: phi,psi and Cbeta deviation. […]

Take TTAGGGTTAG (ssDNA) [telomeric ssDNA target 10-mer]: the binding result is recorded as “binds”.
